{"source": "patent US20090208938A1", "about": "(CENTRE NATIONAL DE LA RECHERCHE SCIENTIFIQUE, published 2009)", "target": "T1, MCM2-7 protein complex (Xenopus egg extracts) (Xenopus, UniProt P55861 1-886; P49739 1-807; P30664 1-863; P55862 1-735; Q5FWY4 1-821; Q91876 …)", "T1 construct": "Endogenous complex of the six proteins MCM2 to MCM7; also called MCM2-7 proteins; MCM2-7 complex", "test": "co-immunoprecipitation with MCM3 antibody from S phase egg extracts, western blot with MCM8 antibody", "data": [{"binder": "Xenopus MCM8 protein (enzyme, Full-length protein: translated in vitro in rabbit reticulocytes, or the endogenous protein of Xenopus egg extracts; also called 90 kDa polypeptide) MSQGWRGGSGGWRGGGGGGGNPYAGAWRGRPWRGRGQGGTWSRNNGRDPVCFAPPKPQLTQTTLDKYIPYKGWKLYFSEAYSDNSPFLEKVRAFEKFFKKQIELYDKDEIERKGSILVDYKELLQDEDLSASIPLSSELKDMPEKVLECMGLAIHQVLTKDLETHAADLQQQEGLRTEEAPIVNVPFIHARVFNYDTLTSLKNLRASLYGKYVALRGTVVRVGNIKPLCTKMAFSCNMCGDIQCFPLPDGKYTVPTKCPVPECRGRSFTANRSSPLTVTVDWQTIKVQELMSDDQREAGRIPRTVECELIQDLVDSCVPGDMITVTGIVKVSNTRDGGFKNKNNKCMFLLYIEANSVSNSKGQKGKSTEDSGNHGASMDFSLKDLYAIQEIQSQENLFQLIVNSLCPTIYGHELVKAGLSLALFGGCQKYADDKNRIPIRGDPHILVVGDPGLGKSQMLQAVCNVAPRGVYVCGNTTTTSGLTVTLSRDTTTGDFGLEAGALVLGDQGICGIDEFDKMGNQHQALLEAMEQQSISLAKAGIVCSLPARTSIIAAANPVGGHYNKGKTVSENLKMGSALLSRFDLVFILVDTPNEDHDHLLSEHVMAMRSGAKEIQSVDITRINTQNSNTSILEVPSERPLGERLKLRTGEHFDALPHQLLRKFVGYARQYVHPSLSPDAAQILQDFYLELRKQNQGIDSTPITTRQLESLIRLTEARARLELREKATKEDAEEVVQIMKYSLLGTFSDEFGKLDFQRSQHGSGMSNRSKAKKFVSALNRVAEQTYNNLFEFQQLRQIARELQIQVIDFEAFIGSLNDQGYLLKKGPRVFQLQTM", "values": [{"measurement": "binding result", "value": "no binding"}]}]}
